This is an account of results in patent US20120207760A1.

Details in all cases: remark: other sources report otherwise
For assay [1], the target named is T1, recombinant homotrimeric HA, A/California/4/09 H1N1 (Influenza A virus A/California/4/09 (H1N1)). In words: trimeric HA microarray, transfection set 5.
Assay [2] concerns the target T2, recombinant homotrimeric HA, A/Indonesia/5/05 H5N1 (Influenza A virus A/Indonesia/5/05 (H5N1)). In words: trimeric HA microarray, transfection set 5.
Assay [3] addresses T3, recombinant homotrimeric HA, A/Japan/305/57 H2N2 (Influenza A virus A/Japan/305/57 (H2N2)). Nature of the assay: trimeric HA microarray, transfection set 5.
The target in assay [4] is T4, recombinant homotrimeric HA, A/Solomon Islands/3/06 H1N1 (Influenza A virus A/Solomon Islands/3/06 (H1N1)). In words: trimeric HA microarray, transfection set 5.
For assay [5], the target named is T5, recombinant homotrimeric HA, A/South Carolina/1/18 H1N1 (Influenza A virus A/South Carolina/1/18 (H1N1)). Nature of the assay: trimeric HA microarray, transfection set 5.
The target in assay [6] is T6, recombinant homotrimeric HA, A/Wisconsin/67/05 H3N2 (Influenza A virus A/Wisconsin/67/05 (H3N2)). In words: trimeric HA microarray, transfection set 5.
The target of assay [7] is recombinant soluble homotrimeric HA of A/Netherlands/219/03 (H7N7) (Influenza A virus A/Netherlands/219/03 (H7N7)). Nature of the assay: microarray, BCC supernatant IgG, trimeric HA.
Assay [8] addresses T1, recombinant homotrimeric HA, …. Nature of the assay: trimeric HA microarray, transfection set 3.
Assay [9] has as its target recombinant homotrimeric HA, A/Egypt/3300-NAMRU3/08 H5N1 (Influenza A virus A/Egypt/3300-NAMRU3/08 (H5N1)). Nature of the assay: trimeric HA microarray, transfection set 3.
Assay [10] concerns the target recombinant homotrimeric HA, A/Hong Kong/1073/99 H9N2 (Influenza A virus A/Hong Kong/1073/99 (H9N2)). Nature of the assay: trimeric HA microarray, transfection set 3.
Assay [11] has as its target recombinant homotrimeric HA, A/Hong Kong/2108/03 H9N2 (Influenza A virus A/Hong Kong/2108/03 (H9N2)). In words: trimeric HA microarray, transfection set 3.
The target of assay [12] is T2, recombinant homotrimeric HA, …. Nature of the assay: trimeric HA microarray, transfection set 3.
Assay [13] deals with T3, recombinant homotrimeric HA, …. In words: trimeric HA microarray, transfection set 3.
Assay [14] concerns the target T4, recombinant homotrimeric HA, A/Solomon …. Nature of the assay: trimeric HA microarray, transfection set 3.
For assay [15], the target named is T5, recombinant homotrimeric HA, A/South …. Nature of the assay: trimeric HA microarray, transfection set 3.
The target in assay [16] is T7, recombinant homotrimeric HA, A/Vietnam/1203/04 H5N1 (Influenza A virus A/Vietnam/1203/04 (H5N1)). In words: trimeric HA microarray, transfection set 3.
Assay [17] addresses T6, recombinant homotrimeric HA, …. Nature of the assay: trimeric HA microarray, transfection set 3.
Assay [18] addresses recombinant homotrimeric HA, A/chicken/Vietnam/NCVD-016/08 H5N1 (Influenza A virus A/chicken/Vietnam/NCVD-016/08 (H5N1)). In words: trimeric HA microarray, transfection set 3.
Assay [19] has as its target recombinant homotrimeric HA, A/common magpie/Hong Kong/5052/07 H5N1 (Influenza A virus A/common magpie/Hong Kong/5052/07 (H5N1)). In words: trimeric HA microarray, transfection set 3.
In assay [20] the target is recombinant homotrimeric HA, A/duck/Yangzhou/02/05 H8N4 (Influenza A virus A/duck/Yangzhou/02/2005 (H8N4)). Nature of the assay: trimeric HA microarray, transfection set 3.
Assay [21] deals with recombinant homotrimeric HA, A/northern shoveler/California/HKWF115/07 (Influenza A virus A/northern shoveler/California/HKWF115/2007 (H6N1)). Nature of the assay: trimeric HA microarray, transfection set 3.
Assay [22] concerns the target recombinant homotrimeric HA, A/swine/Ontario/01911-2/99 H4N6 (Influenza A virus A/swine/Ontario/01911-2/99 (H4N6)). In words: trimeric HA microarray, transfection set 3.
The target in assay [23] is recombinant soluble homotrimeric HA of A/Anhui/1/05 (H5N1) (Influenza A virus A/Anhui/1/05 (H5N1)). In words: microarray, BCC supernatant IgG, trimeric HA.
Assay [24] addresses recombinant soluble homotrimeric HA of A/California/4/09 (H1N1) (Influenza A virus A/California/4/09 (H1N1)). In words: microarray, BCC supernatant IgG, trimeric HA.
In assay [25] the target is recombinant soluble homotrimeric HA of A/Egypt/3300-NAMRU3/08 (H5N1) (Influenza A virus A/Egypt/3300-NAMRU3/08 (H5N1)). In words: microarray, BCC supernatant IgG, trimeric HA.
For assay [26], the target named is recombinant soluble homotrimeric HA of A/Hong Kong/2108/03 (H9N2) (Influenza A virus A/Hong Kong/2108/03 (H9N2)). In words: microarray, BCC supernatant IgG, trimeric HA.
In assay [27] the target is recombinant soluble homotrimeric HA of A/Indonesia/5/05 (H5N1) (Influenza A virus A/Indonesia/5/05 (H5N1)). In words: microarray, BCC supernatant IgG, trimeric HA.
Assay [28] has as its target recombinant soluble homotrimeric HA of A/Japan/305/57 (H2N2) (Influenza A virus A/Japan/305/57 (H2N2)). In words: microarray, BCC supernatant IgG, trimeric HA.
The target of assay [29] is recombinant soluble homotrimeric HA of A/Solomon Islands/3/06 (H1N1) (Influenza A virus A/Solomon Islands/3/06 (H1N1)). In words: microarray, BCC supernatant IgG, trimeric HA.
The target of assay [30] is recombinant soluble homotrimeric HA of A/Vietnam/1203/04 (H5N1) (Influenza A virus A/Vietnam/1203/04 (H5N1)). In words: microarray, BCC supernatant IgG, trimeric HA.
For assay [31], the target named is recombinant soluble homotrimeric HA of A/Wisconsin/67/05 (H3N2) (Influenza A virus A/Wisconsin/67/05 (H3N2)). In words: microarray, BCC supernatant IgG, trimeric HA.
For assay [32], the target named is recombinant soluble homotrimeric HA of A/chicken/Vietnam/NCVD-016/08 (H5N1) (Influenza A virus A/chicken/Vietnam/NCVD-016/08 (H5N1)). Nature of the assay: microarray, BCC supernatant IgG, trimeric HA.
Assay [33] addresses recombinant soluble homotrimeric HA of A/duck/Yangzhou/02/05 (H8N4) (Influenza A virus A/duck/Yangzhou/02/2005 (H8N4)). Nature of the assay: microarray, BCC supernatant IgG, trimeric HA.
In assay [34] the target is recombinant soluble homotrimeric HA of A/northern shoveler/California/HKWF115/07 (Influenza A virus A/northern shoveler/California/HKWF115/2007). In words: microarray, BCC supernatant IgG, trimeric HA.
Assay [35] deals with recombinant soluble homotrimeric HA of A/swine/Ontario/01911-2/99 (H4N6) (Influenza A virus A/swine/Ontario/01911-2/99 (H4N6)). In words: microarray, BCC supernatant IgG, trimeric HA.
Assay [36] deals with T7, recombinant homotrimeric HA, …. Nature of the assay: trimeric HA microarray, transfection set 5.
Assay [37] concerns the target hemagglutinin (HA) of influenza A/Japan/305/57 H2N2 (Influenza A virus A/Japan/305/1957 (H2N2)), P03451. Nature of the assay: ELISA, inactivated whole virions coated; transfection supernatant set 5.

B1: TCN-538 (3206_O17) (antibody, V domains shown)
VH: QITLKESGPTLVKPTQTLTLTCVFSGFSLSITGVRVGWIRQPPGKALEWLALISWDDEKHYSPSLQSRLTITKDTSKNQVVLTMTNLDPVDTATYYCARSTDRGHVLRYFGWMLPGDAFDVWGQGTMVTVSS
VL: DIVMTQSPDFLPVSLGERATINCKSSQRVLYSSNNKNYLAWYQLKPGQPPKLIIYWASTRESGVPDRFSGSGSGTEFTLTISSLQAEDVAVYYCQQYYSRPYTFGQGTKLEIK
For B1, the Trimeric HA Binding RLU amounted to 16000 RLU in [1]; 13700 RLU in assay [2]; 6620 RLU in assay [3]; 1960 RLU in assay [4]; 8430 RLU in [5]; 2070 RLU in assay [6]. Besides, the Trimeric HA Binding: RLU in assay [7] stood at 6530 RLU.

B2: TCN-533 (5256_A17) (antibody, V domains shown)
VH: QVQLVQSGADVKKPGSSVTVSCKASGGSFSNYGINWVRQAPGQGLEWMGGIIPLINAPNYAPKFQGRVTITADMFSNIVSLQLTSLRTDDTAVYYCARRKMTTAIDYWGQGTLVTVSS
VL: QPVLSQPPSASASLGASVTLTCTLSSGFDNYQVAWYQQRPGKGPRFVMRVGNGGNVASKGDGIPDRFSVSGSGLNRYLTIKNIQEDDESDYYCGADHGSGNNFVSPYVFGGGTKLTVL
Take B2: the Trimeric HA Binding RLU in [8] worked out at 6880 RLU; in [9], 18600 RLU; in [10], 23800 RLU; in assay [11], 33 RLU; in assay [12], 28300 RLU; in assay [13] it was 18600 RLU. For the same molecule, the Trimeric HA Binding RLU in assay [14] was 15500 RLU; in assay [15], 16400 RLU; in assay [16], 11700 RLU; in assay [17], 16100 RLU; in assay [18], 24600 RLU; in assay [19], 25200 RLU. For the same molecule, the Trimeric HA Binding RLU in [20] turned out to be 711 RLU; in assay [21], 7810 RLU; in [22], 180 RLU. The Trimeric HA Binding: RLU in assay [23] amounted to 8060 RLU; in assay [24], 29300 RLU; in assay [25], 34300 RLU; in assay [26], 172 RLU; in assay [27], 44100 RLU; in assay [28], 10800 RLU. For the same molecule, the Trimeric HA Binding: RLU in [29] stood at 39200 RLU; in assay [30], 5680 RLU; in assay [31], 13800 RLU; in assay [32], 47700 RLU; in [33] it was 24700 RLU; in assay [34], 41400 RLU. Moreover, the Trimeric HA Binding: RLU in assay [35] amounted to 1580 RLU.

B3: TCN-551 (5243_D01) (antibody, V domains shown)
VH: EVQLVQSGSEVKKPGESLKISCKGSGYSFSNYWIGWVRHMPGKGLEWMGIIYPGDSDTRYSPSFQGQVTMSADKSSSTVYLQWSSLKASDTAIYYCARRGGHSFGYGSGGDTHSEFDSWGQGTLVTVSS
VL: QSVLTQSPSVSAAPGQKVTISCSGSDSNIGDYFVCWYQHLPGKPPQLLIYENNKRPSGIPDRFSGSKSGTSATLGITGIQTGDEADYYCATWDGSLSAWVFGGGTKLTVL
Consider B3, for which the Trimeric HA Binding RLU in assay [1] came out at 46100 RLU; in [3], 25200 RLU; in assay [4], 43500 RLU; in [5] it was 4340 RLU; in assay [36] it was 41900 RLU; in assay [6], 936 RLU. For the same molecule, the values for the Trimeric HA Binding: RLU in assay [32] and in assay [34] were 42300 RLU and 52500 RLU, respectively. In addition, the OD450 in [37] came out at 0.1 OD450.
